From patent US9266940 (Novo Nordisk, dated 2016) come the findings set out here.

Numbered stars: 1 amine (or outer) side, 2 acyl side, 3 side chain; on linkers, the order of the positions; unused ones are H or OH. Square brackets hold non-standard residues; d marks the D form. Side chains are listed from the residue outwards. Ends that are not written are not given here. * marks the point of attachment. Dodecanoyl(12-OPh(4-COOH)) = O=C(O)c1ccc(OCCCCCCCCCCCC(=O)*)cc1; Decanoyl(10-(4-HOOC-PhO)) = O=C(O)c1ccc(OCCCCCCCCCC(=O)*)cc1; γGlu = O=C(O)[C@H](CCC(=O)[*:2])N[*:1]; C14 diacid = O=C(O)CCCCCCCCCCCCC(=O)*; AEEA = NCCOCCOCC(=O)O; Aib = CC(C)(N)C(=O)O

Assay [1] has as its target T1, human GLP-1 receptor (human, UniProt P43220 24-463).
T1 construct: whole, on cells; Used as purified plasma membranes of the stably transfected BHK cell line, not as intact cells; also called hGLP-1
In words: SPA, displacement of 125I-GLP-1(7-36)NH2 from hGLP-1R BHK membranes, high HSA (2.0%). Here is the method:
(§1) A shift in the binding affinity, $IC50$, is an indication that the peptide in question binds to albumin, and thereby a prediction of a potential protracted pharmacokinetic profile of the peptide in question in animal models.
(§2) 50 ul (micro liter) HSA ("high albumin" experiment containing 2% HSA), or buffer ("low albumin" experiment containing 0.001% HSA), was added to Optiplate, and 25 ul of test compounds were added. 5-10 ug membrane protein/sample was added (50 ul) corresponding to 0.1-0.2 mg protein/ml (to be preferably optimised for each membrane preparation). SPA-particles (Wheatgerm agglutinin SPA beads, Perkin Elmer, #RPNQ0001) were added in an amount of 0.5 mg/well (50 ul). […] The plates were sealed with PlateSealer and incubated for 120 minutes at 30° C. while shaking. The plates were centrifuged (1500 rpm, 10 min) and counted in Topcounter.
For orientation: Loss of bound radioactivity is the signal in a displacement assay; it reports binding, not function.

The target in assay [2] is T1, human GLP-1 receptor. In words: cell-based or functional assay.
The target in assay [3] is T1, human GLP-1 receptor. Briefly: SPA displacement assay; IC50 at 2.0% HSA over IC50 at 0.001% HSA. As to the method: as §1, §2
Assay [4] deals with T1, human GLP-1 receptor. In words: SPA, displacement of 125I-GLP-1(7-36)NH2 from hGLP-1R BHK membranes, low HSA (0.001%). As to the method:
as §1, §2

As to H[Aib]EGTFTSDVSSYLEGQAVRK([AEEA-AEEA-γGlu-C14 diacid])FIAHLVQGRK([AEEA-AEEA-γGlu-C14 diacid]) (also called 15), the half-maximal inhibitory concentration (IC50) (commonly the concentration at which inhibition is half-maximal) in the assay with human GLP-1 receptor [1] stood at 29 nM; with human GLP-1 receptor [4], 0.19 nM. In addition, the “EC50/pM (in vitro potency, cAMP formation, AlphaScreen)” value (shortened to “EC50/pM”) in the assay with human GLP-1 receptor [2] was found to be 5 pM. Besides, the “Ratio [(IC50/nM) high HSA]/[(IC50/nM) low HSA]” value (“Ratio” below) with human GLP-1 receptor [3] came out at 155.
The corresponding values for H[Aib]EGTFTSDVSSYK([AEEA-AEEA-γGlu-Decanoyl(10-(4-HOOC-PhO))])EEQAARK([AEEA-AEEA-γGlu-Decanoyl(10-(4-HOOC-PhO))])FIEWLVG are 446 nM, 5.68 nM, 468 pM and 79.
Turning to HAEGTFTSDVSSYLEEQAARK([AEEA-AEEA-γGlu-Dodecanoyl(12-OPh(4-COOH))])FIEWLVRGK([AEEA-AEEA-γGlu-Dodecanoyl(12-OPh(4-COOH))])GEG (also called 32), the IC50 with human GLP-1 receptor [1] is 369 nM; in the assay with human GLP-1 receptor [4], 0.18 nM. In addition, the “EC50/pM” value with human GLP-1 receptor [2] is 76 pM. Moreover, the “Ratio” value with human GLP-1 receptor [3] came out at 2050.
Turning to HAEGTFTSDVSSYLEEQK([AEEA-AEEA-γGlu-Decanoyl(10-(4-HOOC-PhO))])ARK([AEEA-AEEA-γGlu-Decanoyl(10-(4-HOOC-PhO))])FIAHLVG (also called 25), the IC50 came out at 39 nM in the assay with human GLP-1 receptor [1] and 10.9 nM with human GLP-1 receptor [4]. Besides, in the assay with human GLP-1 receptor [2], the “EC50/pM” value was 380 pM. The “Ratio” value with human GLP-1 receptor [3] is 3.5.
The corresponding values for H[Aib]EGTFTSDVSSYLEK([AEEA-AEEA-γGlu-C14 diacid])QAARK([AEEA-AEEA-γGlu-C14 diacid])FIAHLVG (also called 19) are 143 nM, 2.38 nM, 52 pM and 60.
H[Aib]EGTK([AEEA-AEEA-γGlu-C14 diacid])TSDVSSYLEEQAARK([AEEA-AEEA-γGlu-C14 diacid])FIAHLVQGRG (also called 18): the IC50 with human GLP-1 receptor [1] worked out at 789 nM; with human GLP-1 receptor [4], 373 nM. For the same molecule, the “EC50/pM” value with human GLP-1 receptor [2] came out at 3020 pM. Besides, the “Ratio” value with human GLP-1 receptor [3] is 2.1.
On to HAEGTFTSDVSSYLEEQAARK([AEEA-AEEA-γGlu-Decanoyl(10-(4-HOOC-PhO))])FIEWLVRGK([AEEA-AEEA-γGlu-Decanoyl(10-(4-HOOC-PhO))])GEG, for which the results for the half-inhibitory concentration (IC50) with human GLP-1 receptor [1] and with human GLP-1 receptor [4] were 320 nM and 0.39 nM, respectively. In the assay with human GLP-1 receptor [2], the “EC50/pM” value worked out at 43 pM. Moreover, the “Ratio” value with human GLP-1 receptor [3] was found to be 821.
As for H[Aib]EGTFTSDVSSYLEK([AEEA-AEEA-γGlu-C14 diacid])QAVRK([AEEA-AEEA-γGlu-C14 diacid])FIAWLVR, the figures for the IC50 in the assay with human GLP-1 receptor [1] and in the assay with human GLP-1 receptor [4] were 80 nM and 1.41 nM, respectively. The “EC50/pM” value with human GLP-1 receptor [2] worked out at 159 pM. In addition, in the assay with human GLP-1 receptor [3], the “Ratio” value was 57.
The corresponding values for HAEGTFTSDVSSYLEEQAARK([AEEA-AEEA-γGlu-Decanoyl(10-(4-HOOC-PhO))])FIAWLVRGK([AEEA-AEEA-γGlu-Decanoyl(10-(4-HOOC-PhO))]) (ends and bridges not checked) are 29 nM, 0.29 nM, 62 pM and 101.
As for H[Aib]EGTFTSDVSSYLEEQAARK([AEEA-AEEA-γGlu-Decanoyl(10-(4-HOOC-PhO))])FIEWLVRGK([AEEA-AEEA-γGlu-Decanoyl(10-(4-HOOC-PhO))])GEG (also called 31), the IC50 in the assay with human GLP-1 receptor [1] came to 220 nM; in the assay with human GLP-1 receptor [4], 0.35 nM. Further, the “EC50/pM” value with human GLP-1 receptor [2] came to 37 pM. Also, in the assay with human GLP-1 receptor [3], the “Ratio” value came to 629.
Take H[Aib]EGTFTSDVSSYLEK([AEEA-AEEA-γGlu-C14 diacid])QAVRK([AEEA-AEEA-γGlu-C14 diacid])FIAWLVRG: the concentration for half-maximal inhibition (IC50) amounted to 60 nM with human GLP-1 receptor [1] and 0.38 nM with human GLP-1 receptor [4]. In the assay with human GLP-1 receptor [2], the “EC50/pM” value amounted to 242 pM. Further, the “Ratio” value with human GLP-1 receptor [3] worked out at 157.
